Key:
[1] = target: endogenous SET (mouse (endogenous in adult mouse brain slices)) (UniProt Q9EQU5); experiment: co-IP; lysates of adult mouse brain slices incubated 5 h 30 min with or without recombinant SET (4 μM); IP with polyclonal anti-SET (recognises endogenous and recombinant SET) and protein A Sepharose, overnight 4°C; Hepes 10 mM, NaCl 150 mM, CaCl2 2 mM, Triton X-100 1% pH 7.4; blot for total PP2A C subunit, then methyl-PP2A after stripping
[2] = target: PP2A (total PP2A, detected with an anti-PP2A C subunit antibody) (mouse (endogenous in adult mouse brain slices)) (UniProt P63330)
[3] = target: PP2A (total PP2A, detected with an anti-PP2A C subunit antibody) (mouse (endogenous in adult mouse brain slices)) (UniProt P63330); remark: listed apart in the source

UniProt P63330, sequence (P63330 whole entry): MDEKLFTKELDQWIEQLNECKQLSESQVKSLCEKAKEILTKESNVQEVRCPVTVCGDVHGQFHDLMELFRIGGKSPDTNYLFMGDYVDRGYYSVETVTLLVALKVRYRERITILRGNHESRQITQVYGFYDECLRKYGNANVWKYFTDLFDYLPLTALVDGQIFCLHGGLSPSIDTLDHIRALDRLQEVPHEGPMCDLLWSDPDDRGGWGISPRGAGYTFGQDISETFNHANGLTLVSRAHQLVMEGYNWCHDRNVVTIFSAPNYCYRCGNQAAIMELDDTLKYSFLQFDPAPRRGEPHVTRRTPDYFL
UniProt Q9EQU5, sequence (Q9EQU5 whole entry): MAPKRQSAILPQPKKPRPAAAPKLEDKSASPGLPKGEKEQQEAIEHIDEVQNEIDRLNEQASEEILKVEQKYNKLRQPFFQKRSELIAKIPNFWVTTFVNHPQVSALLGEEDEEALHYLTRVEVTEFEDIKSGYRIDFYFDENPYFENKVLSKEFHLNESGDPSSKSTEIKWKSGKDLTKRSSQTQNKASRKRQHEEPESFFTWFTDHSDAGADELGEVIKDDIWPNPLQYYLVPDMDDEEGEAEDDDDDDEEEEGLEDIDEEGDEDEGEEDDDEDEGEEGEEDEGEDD

ratio of methyl-PP2A to total PP2A co-immunoprecipitated with SET [1]	ratio of methyl-PP2A to total PP2A by western blotting of brain slice lysates after 5 h 30 min of recombinant SET internalization, percent of the control ratio (% of control ratio) [2]	PP2A activity (release of p-nitrophenol) on PP2A immunoprecipitated from brain slices containing internalized recombinant SET, percent of control [3]	Substance
2.18			methylated PP2A (from UniProt P63330 1-309) (enzyme)
	83.6	84 % of control	recombinant HA-tagged SET protein fused to the Penetratin vector (from UniProt Q01105 1-290) (natural protein)
